Results on four molecules are retold here after article PMC10888616, “Pleiotropic Effects of PhaR Regulator in Bradyrhizobium diazoefficiens Microaerobic Metabolism”.

The target of data set [1] is recombinant untagged PhaR protein of Bradyrhizobium diazoefficiens (Bradyrhizobium diazoefficiens). Briefly: SEC; Superdex 75 10/300 GL, mIVT buffer at pH 8 (40 mM Tris-HCl, 150 mM KCl, 0.1 mM EDTA, 0.1 mM DTT), 200 uL of untagged PhaR at 5 to 30 uM, 0.5 mL/min; tetramer to monomers; the monomer peak increased at lower concentrations.
Data set [2] addresses T1, PhaR (Bradyrhizobium diazoefficiens USDA 110, UniProt Q89XT0 1-197).
T1 sequence: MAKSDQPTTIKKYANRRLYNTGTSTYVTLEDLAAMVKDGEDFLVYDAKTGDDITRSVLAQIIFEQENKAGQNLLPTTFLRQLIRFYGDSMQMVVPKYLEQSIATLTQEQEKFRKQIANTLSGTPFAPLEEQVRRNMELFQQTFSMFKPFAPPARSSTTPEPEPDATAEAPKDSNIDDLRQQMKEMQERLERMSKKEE
Briefly: EMSA; shift at 0.5 uM PhaR; mIVT buffer: 40 mM Tris-HCl pH 7.0, 150 mM KCl, 0.1 mM EDTA, 0.1 mM DTT; 10 uL, 2 ng DNA, 0-2 uM PhaR, 30 min room temperature; 6% native PAGE 0.5X TBE, SYBR Gold. The conditions noted are these: protein: recombinant; tags: untagged (C-terminal intein-CBD removed, IMPACT); chain copies: 4; blunt.

Data set [3] addresses T1, PhaR. Description: EMSA; mutation did not affect interaction at 1-2 uM PhaR; mIVT buffer: 40 mM Tris-HCl pH 7.0, 150 mM KCl, 0.1 mM EDTA, 0.1 mM DTT; 10 uL, 2 ng DNA, 0-2 uM PhaR, 30 min room temperature; 6% native PAGE 0.5X TBE, SYBR Gold. To be noted: protein: recombinant; tags: untagged (C-terminal intein-CBD removed, IMPACT); chain copies: 4; blunt.
In data set [4] the target is T1, PhaR. Briefly: EMSA; mIVT buffer: 40 mM Tris-HCl pH 7.0, 150 mM KCl, 0.1 mM EDTA, 0.1 mM DTT; 10 uL, 2 ng DNA, 0-2 uM PhaR, 30 min room temperature; 6% native PAGE 0.5X TBE, SYBR Gold. The conditions noted are these: protein: recombinant; tags: untagged (C-terminal intein-CBD removed, IMPACT); chain copies: 4; blunt.

On to “recombinant untagged PhaR protein of Bradyrhizobium diazoefficiens (natural protein)”, for which the stoichiometry N in data set [1] was 4.

B1: phaP1 67 bp wild type (5155_2) (dsDNA)
DNA 1: GATCTAGTTTTTGTGCGACGCACAAGATTCTTGACTTTTTTGTGCGTTGCACTAATTGTGGGCAGAG
DNA 2: CTCTGCCCACAATTAGTGCAACGCACAAAAAAGTCAAGAATCTTGTGCGTCGCACAAAAACTAGATC
As to B1, the binding result in data set [2] was “binds”.

B2: blr4358 oligo, long PhaR box mutated (blr4358_EMSA_2) (dsDNA)
DNA 1: CGCCGGATCAGCAATAAAATATAAATTAATATAAGAAGGTCTCCAA
DNA 2: TTGGAGACCTTCTTATATTAATTTATATTTTATTGCTGATCCGGCG
Consider B2, for which, in data set [3], the binding result is “binds”.

B3: blr4358 oligo wild type (blr4358_EMSA_1) (dsDNA)
DNA 1: CGCCGGATCAGCCCGCCAAGATCAAGGCCGCGAAGAAGGTCTCCAA
DNA 2: TTGGAGACCTTCTTCGCGGCCTTGATCTTGGCGGGCTGATCCGGCG
As to B3, in data set [4], the binding result is “binds”.
